Test results as given in patent publication US20210079060A1.

Key:
CD19-FnEGFR (FIG. 15A) [1] = experiment: flow cytometry, yeast display, left panel; FMC63 + GaM-A647 (FL4-A) against biotin-EGFR + strep-A488 (FL1-A)
CD19-scFvHER2 (FIG. 15A) [2] = experiment: flow cytometry, yeast display, right panel; FMC63 + GaM-A647 (FL4-A) against biotin-HER2 + strep-A488 (FL1-A); Q8 30.1 also printed
CD19-scFvHER2 (FIG. 15A) [3] = experiment: flow cytometry, yeast display, right panel; FMC63 + GaM-A647 (FL4-A) against biotin-HER2 + strep-A488 (FL1-A)
CD19-FnEGFR (FIG. 15A) [4] = experiment: flow cytometry, yeast display, left panel; FMC63 + GaM-A647 (FL4-A) against biotin-EGFR + strep-A488 (FL1-A); Q8 64.9 also printed
[5] = molecular target: yeast-displayed wild-type CD19 (extracellular domain) (human) (UniProt P15391); experiment: flow cytometry, yeast display, CD19-Aga2p, 22 °C pre-treat; mAb binding against CD19 per yeast
[6] = molecular target: yeast-displayed wild-type CD19 (extracellular domain) (human) (UniProt P15391); experiment: flow cytometry, yeast display, Aga2p-CD19, 22 °C pre-treat; mAb binding against CD19 per yeast

Chain of yeast-displayed wild-type CD19 (extracellular domain) (human) (P15391 20-291): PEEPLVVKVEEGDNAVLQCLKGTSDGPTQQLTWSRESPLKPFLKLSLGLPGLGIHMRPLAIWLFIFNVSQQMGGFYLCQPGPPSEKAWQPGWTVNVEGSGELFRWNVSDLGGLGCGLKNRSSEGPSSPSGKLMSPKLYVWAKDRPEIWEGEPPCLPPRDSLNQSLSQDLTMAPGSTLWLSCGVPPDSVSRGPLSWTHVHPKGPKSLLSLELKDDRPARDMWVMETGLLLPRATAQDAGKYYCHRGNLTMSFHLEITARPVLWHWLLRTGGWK

Q6, percent of events positive for FMC63 and biotin-target (CD19-FnEGFR (FIG. 15A) [1]) | Q5, percent of events positive for FMC63 and negative for biotin-target (CD19-scFvHER2 (FIG. 15A) [2]) | Q6, percent of events positive for FMC63 and biotin-target (CD19-scFvHER2 (FIG. 15A) [3]) | Q5, percent of events positive for FMC63 and negative for biotin-target (CD19-FnEGFR (FIG. 15A) [4]) | percent of yeast in gate R8 (CD19-displaying, no mAb signal; taken as the lower dashed gate) [5] [%] | percent of yeast in gate R7 (CD19-displaying, no mAb signal; taken as the lower dashed gate) [6] [%] | Substance
0.034 | 31.8 | 35.1 | 35.1 | – | – | FMC63 (antibody)
– | – | – | – | 51.6 | 37.2 | 4G7 (antibody)
